B1: Leucine rich adaptor protein 1 (Homo sapiens), Q96LR2 (parent)
chain: MEGTVESQTPDLRDVEGKVGRKTPEGLLRGLRGECELGTSGALLLPGASSTGHDLGDKIMALKMELAYLRAIDVKILQQLVTLNEGIEAVRWLLEERGTLTSHCSSLTSSQYSLTGGSPGRSRRGSWDSLPDTSTTDRLDSVSIGSFLDTVAPSELDEQGPPGAPRSEMDWAKVIAGGERARTEVDVAATRLGSLRAVWKPPGERLQGGPPESPEDESAKLGFEAHWFWEQCQDDVTFL
B2: Hematopoietic lineage cell-specific protein (Homo sapiens), P14317 (parent)
chain: MWKSVVGHDVSVSVETQGDDWDTDPDFVNDISEKEQRWGAKTIEGSGRTEHINIHQLRNKVSEEHDVLRKKEMESGPKASHGYGGRFGVERDRMDKSAVGHEYVAEVEKHSSQTDAAKGFGGKYGVERDRADKSAVGFDYKGEVEKHTSQKDYSRGFGGRYGVEKDKWDKAALGYDYKGETEKHESQRDYAKGFGGQYGIQKDRVDKSAVGFNEMEAPTTAYKKTTPIEAASSGTRGLKAKFESMAEEKRKREEEEKAQQVARRQQERKAVTKRSPEAPQPVIAMEEPAVPAPLPKKISSEAWPPVGTPPSSESEPVRTSREHPVPLLPIRQTLPEDNEEPPALPPRTLEGLQVEEEPVYEAEPEPEPEPEPEPENDYEDVEEMDRHEQEDEPEGDYEEVLEPEDSSFSSALAGSSGCPAGAGAGAVALGISAVAVYDYQGEGSDELSFDPDDVITDIEMVDEGWWRGRCHGHFGLFPANYVKLLE
partner: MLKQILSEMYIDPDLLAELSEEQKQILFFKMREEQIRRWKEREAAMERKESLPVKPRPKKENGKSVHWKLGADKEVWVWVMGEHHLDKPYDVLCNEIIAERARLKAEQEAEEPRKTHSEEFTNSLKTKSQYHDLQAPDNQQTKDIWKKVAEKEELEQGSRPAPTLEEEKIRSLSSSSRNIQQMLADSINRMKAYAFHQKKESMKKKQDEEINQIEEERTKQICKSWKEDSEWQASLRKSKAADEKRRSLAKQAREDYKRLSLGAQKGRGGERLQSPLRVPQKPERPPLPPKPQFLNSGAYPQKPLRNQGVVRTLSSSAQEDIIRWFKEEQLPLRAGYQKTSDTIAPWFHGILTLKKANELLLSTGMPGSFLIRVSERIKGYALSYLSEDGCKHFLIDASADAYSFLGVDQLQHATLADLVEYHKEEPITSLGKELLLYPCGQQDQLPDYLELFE
B3: Retinoic acid receptor RXR-gamma (Homo sapiens), P48443 (parent)
chain: MYGNYSHFMKFPAGYGGSPGHTGSTSMSPSAALSTGKPMDSHPSYTDTPVSAPRTLSAVGTPLNALGSPYRVITSAMGPPSGALAAPPGINLVAPPSSQLNVVNSVSSSEDIKPLPGLPGIGNMNYPSTSPGSLVKHICAICGDRSSGKHYGVYSCEGCKGFFKRTIRKDLIYTCRDNKDCLIDKRQRNRCQYCRYQKCLVMGMKREAVQEERQRSRERAESEAECATSGHEDMPVERILEAELAVEPKTESYGDMNMENSTNDPVTNICHAADKQLFTLVEWAKRIPHFSDLTLEDQVILLRAGWNELLIASFSHRSVSVQDGILLATGLHVHRSSAHSAGVGSIFDRVLTELVSKMKDMQMDKSELGCLRAIVLFNPDAKGLSNPSEVETLREKVYATLEAYTKQKYPEQPGRFAKLLLRLPALRSIGLKCLEHLFFFKLIGDTPIDTFLMEMLETPLQIT
partner: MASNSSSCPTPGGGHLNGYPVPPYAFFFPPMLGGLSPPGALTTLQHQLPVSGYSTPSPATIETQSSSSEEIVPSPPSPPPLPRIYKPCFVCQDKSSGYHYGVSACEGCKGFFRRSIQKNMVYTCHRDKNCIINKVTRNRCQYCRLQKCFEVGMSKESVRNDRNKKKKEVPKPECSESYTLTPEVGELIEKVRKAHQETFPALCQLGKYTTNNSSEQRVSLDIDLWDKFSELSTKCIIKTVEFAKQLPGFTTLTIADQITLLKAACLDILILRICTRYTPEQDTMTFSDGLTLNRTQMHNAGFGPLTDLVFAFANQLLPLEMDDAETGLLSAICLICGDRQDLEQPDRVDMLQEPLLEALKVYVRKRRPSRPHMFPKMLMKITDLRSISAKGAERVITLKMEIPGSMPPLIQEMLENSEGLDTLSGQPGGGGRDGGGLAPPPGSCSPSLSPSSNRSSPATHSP
B4: U3 small nucleolar RNA-associated protein 14 homolog C (Homo sapiens), Q5TAP6 (parent)
chain: MNVNQVAENLALSHQEELVDLPKNYPLSENEDEGDSDGERKHQKLLEAIISLDGKNRRKLAERSEASLKVSEFSVSSEGSGEKLGLADLLEPVKTSSSLATVKKQLNRVKSKKVVELPLNKEKIEQIHREVAFSKTSQVLSKWDPIILKNQQAEQLVFPLGKEQPAIAPIEHALSGWKARTPLEQEIFNLLHKNKQPVTDPLLTPMEKASLQAMSLEEAKMHRAELQRARALQSYYEAKARKEKKIKSKKYHKVVKKGKAKKALKEFEQLQKVNPTVALEEMEKIENARMMERMSLKHQNSGKWAKSKAIMAKYDLEARQAMQEQLAKNKELTQKLQVASESEEEEGGTEVEELLVPHVANEVQMNVDGPNPWMFRSCTSDTKEAATQEDPEQVPELAAHEVSASEAEERPVAEEEILLREFEERQSLRKRSELNQDAEPASSQETKDSSSQEVLSELRALSQKLKEKHQSRKQKASSEGTVPQVQREEPAPEEAEPLLLQRSERVQTLEELEELGKEDCFQNKELPRPVLEGQQSERTPNNRPDAPKEKKEKEQLINLQNFLTTQSPSVRSLAVPTIIEELEDEEERDQRQMIKEAFAGDDVIRDFLKEKREAVEASKPKDVDLTLPGWGEWGGVGLKPSAKKRRQFLIKAPEGPPRKDKNLPNVIISEKRNIHAAAHQVQVLPYPFTHHRQFERTIQTPIGSTWNTQRAFQKLTTPKVVTKPGHIIKPIKAEDVGYQSSSRSDLPVIQRNPKRITTRHNKEEKL
partner: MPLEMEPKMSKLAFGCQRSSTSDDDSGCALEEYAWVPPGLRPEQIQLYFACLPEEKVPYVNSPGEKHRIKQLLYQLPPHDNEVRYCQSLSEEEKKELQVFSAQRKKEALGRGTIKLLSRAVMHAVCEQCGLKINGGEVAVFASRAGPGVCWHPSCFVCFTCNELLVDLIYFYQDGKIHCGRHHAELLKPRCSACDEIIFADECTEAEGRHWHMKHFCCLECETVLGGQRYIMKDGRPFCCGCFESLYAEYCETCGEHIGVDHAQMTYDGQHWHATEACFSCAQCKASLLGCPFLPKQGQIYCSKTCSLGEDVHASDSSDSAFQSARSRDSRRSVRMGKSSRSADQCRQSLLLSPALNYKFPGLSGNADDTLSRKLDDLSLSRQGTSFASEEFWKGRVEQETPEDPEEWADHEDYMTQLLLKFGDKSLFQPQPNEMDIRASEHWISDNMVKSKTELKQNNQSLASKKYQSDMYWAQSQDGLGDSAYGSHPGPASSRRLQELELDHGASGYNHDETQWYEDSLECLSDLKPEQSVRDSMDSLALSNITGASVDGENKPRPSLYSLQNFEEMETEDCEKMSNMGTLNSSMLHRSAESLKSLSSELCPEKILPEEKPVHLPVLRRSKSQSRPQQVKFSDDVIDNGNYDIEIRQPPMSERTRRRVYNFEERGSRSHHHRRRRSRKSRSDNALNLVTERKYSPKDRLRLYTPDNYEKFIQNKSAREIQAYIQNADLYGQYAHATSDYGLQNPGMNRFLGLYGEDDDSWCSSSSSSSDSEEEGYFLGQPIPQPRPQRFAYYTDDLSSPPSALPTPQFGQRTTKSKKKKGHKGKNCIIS
B5: Calcium-binding and coiled-coil domain-containing protein 2 (Homo sapiens), Q13137 (parent)
chain: MEETIKDPPTSAVLLDHCHFSQVIFNSVEKFYIPGGDVTCHYTFTQHFIPRRKDWIGIFRVGWKTTREYYTFMWVTLPIDLNNKSAKQQEVQFKAYYLPKDDEYYQFCYVDEDGVVRGASIPFQFRPENEEDILVVTTQGEVEEIEQHNKELCKENQELKDSCISLQKQNSDMQAELQKKQEELETLQSINKKLELKVKEQKDYWETELLQLKEQNQKMSSENEKMGIRVDQLQAQLSTQEKEMEKLVQGDQDKTEQLEQLKKENDHLFLSLTEQRKDQKKLEQTVEQMKQNETTAMKKQQELMDENFDLSKRLSENEIICNALQRQKERLEGENDLLKRENSRLLSYMGLDFNSLPYQVPTSDEGGARQNPGLAYGNPYSGIQESSSPSPLSIKKCPICKADDICDHTLEQQQMQPLCFNCPICDKIFPATEKQIFEDHVFCHSL
partner: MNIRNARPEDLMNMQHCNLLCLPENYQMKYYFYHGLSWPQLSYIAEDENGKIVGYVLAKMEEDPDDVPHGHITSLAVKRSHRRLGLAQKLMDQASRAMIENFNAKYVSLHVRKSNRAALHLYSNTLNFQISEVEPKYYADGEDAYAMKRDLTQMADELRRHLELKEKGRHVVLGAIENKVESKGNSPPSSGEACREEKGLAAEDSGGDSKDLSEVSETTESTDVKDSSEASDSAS
B6: Pre-mRNA-splicing factor SPF27 (Homo sapiens), O75934 (parent)
chain: MAGTGLVAGEVVVDALPYFDQGYEAPGVREAAAALVEEETRRYRPTKNYLSYLTAPDYSAFETDIMRNEFERLAARQPIELLSMKRYELPAPSSGQKNDITAWQECVNNSMAQLEHQAVRIENLELMSQHGCNAWKVYNENLVHMIEHAQKELQKLRKHIQDLNWQRKNMQLTAGSKLREMESNWVSLVSKNYEIERTIVQLENEIYQIKQQHGEANKENIRQDF
partner: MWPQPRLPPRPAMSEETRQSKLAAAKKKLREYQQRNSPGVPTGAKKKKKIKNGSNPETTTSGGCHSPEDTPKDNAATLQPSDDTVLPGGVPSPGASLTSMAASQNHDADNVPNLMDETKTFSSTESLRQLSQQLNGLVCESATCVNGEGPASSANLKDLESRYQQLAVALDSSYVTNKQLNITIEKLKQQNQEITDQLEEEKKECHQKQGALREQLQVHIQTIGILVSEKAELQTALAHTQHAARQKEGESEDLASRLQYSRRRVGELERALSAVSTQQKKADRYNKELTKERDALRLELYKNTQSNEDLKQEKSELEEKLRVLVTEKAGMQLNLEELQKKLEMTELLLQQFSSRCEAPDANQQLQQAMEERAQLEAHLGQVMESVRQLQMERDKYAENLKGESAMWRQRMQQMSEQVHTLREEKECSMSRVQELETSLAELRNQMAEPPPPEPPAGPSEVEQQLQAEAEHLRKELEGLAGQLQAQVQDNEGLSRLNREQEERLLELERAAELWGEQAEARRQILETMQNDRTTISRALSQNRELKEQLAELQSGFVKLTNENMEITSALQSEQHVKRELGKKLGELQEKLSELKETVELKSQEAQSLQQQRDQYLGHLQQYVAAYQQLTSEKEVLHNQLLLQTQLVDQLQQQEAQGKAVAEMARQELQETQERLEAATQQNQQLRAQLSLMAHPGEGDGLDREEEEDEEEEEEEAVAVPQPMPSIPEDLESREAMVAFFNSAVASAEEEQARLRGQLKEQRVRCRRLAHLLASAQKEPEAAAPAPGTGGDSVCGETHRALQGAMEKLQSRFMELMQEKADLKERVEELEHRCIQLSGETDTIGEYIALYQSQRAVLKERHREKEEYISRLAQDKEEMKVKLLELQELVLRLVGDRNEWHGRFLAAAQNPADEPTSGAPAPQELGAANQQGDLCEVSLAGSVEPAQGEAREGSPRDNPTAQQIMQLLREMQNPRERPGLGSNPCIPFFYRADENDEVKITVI
B7: 2'-5'-oligoadenylate synthase 2 (Homo sapiens), P29728 (parent)
chain: MGNGESQLSSVPAQKLGWFIQEYLKPYEECQTLIDEMVNTICDVLQEPEQFPLVQGVAIGGSYGRKTVLRGNSDGTLVLFFSDLKQFQDQKRSQRDILDKTGDKLKFCLFTKWLKNNFEIQKSLDGFTIQVFTKNQRISFEVLAAFNALSLNDNPSPWIYRELKRSLDKTNASPGEFAVCFTELQQKFFDNRPGKLKDLILLIKHWHQQCQKKIKDLPSLSPYALELLTVYAWEQGCRKDNFDIAEGVRTVLELIKCQEKLCIYWMVNYNFEDETIRNILLHQLQSARPVILDPVDPTNNVSGDKICWQWLKKEAQTWLTSPNLDNELPAPSWNVLPAPLFTTPGHLLDKFIKEFLQPNKCFLEQIDSAVNIIRTFLKENCFRQSTAKIQIVRGGSTAKGTALKTGSDADLVVFHNSLKSYTSQKNERHKIVKEIHEQLKAFWREKEEELEVSFEPPKWKAPRVLSFSLKSKVLNESVSFDVLPAFNALGQLSSGSTPSPEVYAGLIDLYKSSDLPGGEFSTCFTVLQRNFIRSRPTKLKDLIRLVKHWYKECERKLKPKGSLPPKYALELLTIYAWEQGSGVPDFDTAEGFRTVLELVTQYQQLCIFWKVNYNFEDETVRKFLLSQLQKTRPVILDPAEPTGDVGGGDRWCWHLLAKEAKEWLSSPCFKDGTGNPIPPWKVPTMQTPGSCGARIHPIVNEMFSSRSHRILNNNSKRNF
B8: U3 small nucleolar RNA-associated protein 14 homolog C (Homo sapiens), Q5TAP6 (parent)
chain: B4 chain

Variants of: B1
Settings: with tpm3_human TPM3, P06753
Chain of tpm3_human TPM3, P06753 (P06753 whole entry): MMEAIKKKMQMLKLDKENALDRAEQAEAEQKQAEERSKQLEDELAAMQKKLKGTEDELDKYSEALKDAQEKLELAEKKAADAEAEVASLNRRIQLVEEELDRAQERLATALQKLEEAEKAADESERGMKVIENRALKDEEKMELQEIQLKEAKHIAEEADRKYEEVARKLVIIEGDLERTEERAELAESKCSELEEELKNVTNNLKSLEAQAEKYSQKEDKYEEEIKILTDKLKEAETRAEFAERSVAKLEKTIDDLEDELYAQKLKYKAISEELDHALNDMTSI

Row | Variant | effect of a mutation on the interaction
1 | Q207R | with no effect
2 | M60L | with no effect

Variants of: B2
Settings: with sh24a_human SH2D4A

Row | Variant | effect of a mutation on the interaction
3 | W21C | with no effect
4 | P218L | with no effect
5 | E361K | with no effect

Variants of: B3
Settings: with rara_human RARA

Row | Variant | effect of a mutation on the interaction
6 | A86V | with no effect

Variants of: B4
Settings: with pric1_human PRICKLE1, Q96MT3

Row | Variant | effect of a mutation on the interaction
7 | V109D | with no effect
8 | K247E | with no effect
9 | R672H | with no effect
10 | T101A | disrupting interaction strength
11 | A652T | with no effect
12 | I170V | with no effect

Variants of: B5
Settings: with naa10_human NAA10, P41227

Row | Variant | effect of a mutation on the interaction
13 | P389A | with no effect
14 | T273A | with no effect
15 | E222K | with no effect

Variants of: B6
Settings: with goga2_human GOLGA2, Q08379

Row | Variant | effect of a mutation on the interaction
16 | N139S | disrupting interaction strength

Variants of: B7
Settings: with clk3_human CLK3, P49761
Chain of clk3_human CLK3, P49761 (P49761 whole entry, looked up): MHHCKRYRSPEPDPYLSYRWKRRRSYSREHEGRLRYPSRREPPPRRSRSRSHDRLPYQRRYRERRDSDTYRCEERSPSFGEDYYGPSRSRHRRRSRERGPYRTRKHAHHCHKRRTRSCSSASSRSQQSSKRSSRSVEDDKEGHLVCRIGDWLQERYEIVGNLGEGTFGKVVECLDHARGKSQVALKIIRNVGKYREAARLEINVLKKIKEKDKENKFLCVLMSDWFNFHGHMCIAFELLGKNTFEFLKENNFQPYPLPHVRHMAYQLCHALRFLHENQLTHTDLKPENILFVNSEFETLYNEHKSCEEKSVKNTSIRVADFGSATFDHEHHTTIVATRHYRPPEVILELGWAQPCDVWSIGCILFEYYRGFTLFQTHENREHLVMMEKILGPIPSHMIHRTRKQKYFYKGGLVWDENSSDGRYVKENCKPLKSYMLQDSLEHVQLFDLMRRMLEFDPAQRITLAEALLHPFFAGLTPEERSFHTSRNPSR

Row | Variant | effect of a mutation on the interaction
17 | V620M | with no effect
18 | R535Q | disrupting interaction strength

Variants of: B8
Settings: with myome_human PDE4DIP

Row | Variant | effect of a mutation on the interaction
19 | K247E | with no effect
20 | I170V | with no effect
21 | R672H | with no effect

— IntAct's records for PubMed 31515488
